Here are results for 2 proteins from patent publication US20090117640.

Sequence of hGH mutant Q141N, P01241 (P01241 27-217 Q167N): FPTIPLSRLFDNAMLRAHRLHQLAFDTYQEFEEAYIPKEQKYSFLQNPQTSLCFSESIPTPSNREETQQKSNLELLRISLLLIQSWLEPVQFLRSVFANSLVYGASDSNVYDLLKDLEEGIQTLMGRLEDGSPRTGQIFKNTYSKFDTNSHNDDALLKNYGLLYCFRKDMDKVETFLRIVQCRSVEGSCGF
Sequence of hGH mutant Q40N, P01241 (P01241 27-217 Q66N): as the sequence (P01241 27-217 Q167N) above, with Q40N, N141Q counted along it

B1: TGase from Streptoverticillium ladakanum (protein)
chain: DSDERVTPPAEPLDRMPDPYRPSYGRAETIVNNYIRKWQQVYSHRDGRKQQMTEEQREWLSYGCVGVTWVNSGQYPTNRLAFAFFDEDKYKNELKNGRPRSGETRAEFEGRVAKDSFDEAKGFQRARDVASVMNKALENAHDEGAYLDNLKKELANGNDALRNEDARSPFYSALRNTPSFKDRNGGNHDPSKMKAVIYSKHFWSGQDRSGSSDKRKYGDPEAFRPDRGTGLVDMSRDRNIPRSPTSPGESFVNFDYGWFGAQTEADADKTVWTHGNHYHAPNGSLGAMHVYESKFRNWSDGYSDFDRGAYVVTFVPKSWNTAPDKVKQGWP
As for B1, in the series with hGH mutant Q40N, P01241, the “HPLC peak area of product-Q141” value is recorded as “The first peak (26.5 min, area 1238) is product-Q141”; the Q40N (remaining substrate, normalized to 100) (normalized peak area (sum 100)) amounted to 23; the product-Q141 (normalized to 100) (normalized peak area (sum 100)) came to 77. For the same protein, in the series with hGH mutant Q141N, P01241, the “HPLC peak area of product-Q40” value is listed as “The first peak (19.2 min, area 127) is product-Q40”; the Q141N (remaining substrate, normalized to 100) (normalized peak area (sum 100)) was 90; the product-Q40 (normalized to 100) (normalized peak area (sum 100)) was 10.

B2: TGase from S. mobaraense (wild type) (protein)
chain: DSDDRVTPPAEPLDRMPDPYRPSYGRAETVVNNYIRKWQQVYSHRDGRKQQMTEEQREWLSYGCVGVTWVNSGQYPTNRLAFASFDEDRFKNELKNGRPRSGETRAEFEGRVAKESFDEEKGFQRAREVASVMNRALENAHDESAYLDNLKKELANGNDALRNEDARSPFYSALRNTPSFKERNGGNHDPSRMKAVIYSKHFWSGQDRSSSADKRKYGDPDAFRPAPGTGLVDMSRDRNIPRSPTSPGEGFVNFDYGWFGAQTEADADKTVWTHGNHYHAPNGSLGAMHVYESKFRNWSEGYSDFDRGAYVITFIPKSWNTAPDKVKQGWP
With B2, in the series with hGH mutant Q40N, P01241, the “HPLC peak area of product-Q141” value was “The first peak (26.9 min, area 1283) is product-Q141”; the Q40N (remaining substrate, normalized to 100) (normalized peak area (sum 100)) amounted to 29; the product-Q141 (normalized to 100) (normalized peak area (sum 100)) amounted to 71. Further, in the series with hGH mutant Q141N, P01241, the “HPLC peak area of product-Q40” value was “The first peak (19.5 min, area 296) is product-Q40”; the Q141N (remaining substrate, normalized to 100) (normalized peak area (sum 100)) turned out to be 81; the product-Q40 (normalized to 100) (normalized peak area (sum 100)) is 19.
